This experiment has as its target SARS-CoV-2 spike protein receptor-binding domain (residues 319 to 533), wild type (SARS-CoV-2, UniProt P0DTC2). Nature of the experiment: SPR. Particulars: both partners purified.

B1: nCoV617 (full-length recombinant human IgG1) (antibody, V domains shown)
VH: QVQLVESGGGVVQPGRSLRLSCAASGFTFSSYAMHWVRQAPGKGLEWVALISYDGSNKYADSVKGRFTISRDNSKNTLYLQMNSLRAEDTAVYYCARGLGLRFLEWPISSYWGQGTLVTVSS
VL: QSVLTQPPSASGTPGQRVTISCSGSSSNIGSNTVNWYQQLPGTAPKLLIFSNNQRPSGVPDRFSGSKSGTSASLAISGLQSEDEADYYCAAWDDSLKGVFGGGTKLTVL
notes: also called MAb nCoV617; NAb nCoV617
B1: the affinity, expressed as Kd, was 4.23 nM. This counts as single-digit nanomolar.
